Source: patent US9745607B2, “Methods of producing 6-carbon chemicals using 2,6-diaminopimelate as precursor to 2-aminopimelate” (INVISTA North America S.á r.l., priority 2014, dated 2017)

What was measured:
Assay type in all cases: biochemical
[1] = ω-transaminase enzyme activity assay, forward direction (adipate semialdehyde to 6-aminohexanoate); details: cell free extract, 10 mM adipate semialdehyde, 10 mM L-alanine, pH 7.5, 25° C., 4 h, RP-HPLC, against the empty vector control
Protocol: (§1) A nucleotide sequence encoding a His-tag was added to the genes from Chromobacterium violaceum, Pseudomonas aeruginosa, Pseudomonas syringae, Rhodobacter sphaeroides, and Vibrio Fluvialis encoding the ω-transaminases of SEQ ID NOs: 8, 9, 10, 11 and 13, respectively (see FIG. 20E and FIG. 20F) such that N-terminal HIS tagged ω-transaminases could be produced. Each of the resulting modified genes was cloned into a pET21a expression vector under control of the T7 promoter and each expression vector was transformed into a BL21[DE3] E. coli host. The resulting recombinant E. coli strains were cultivated at 37° C. in a 250 mL shake flask culture containing 50 mL LB media and antibiotic selection pressure, with shaking at 230 rpm. Each culture was induced overnight at 16° C. using 1 mM IPTG.
(§2) The pellet from each induced shake flask culture was harvested via centrifugation. Each pellet was resuspended and lysed via sonication. The cell debris was separated from the supernatant via centrifugation and the cell free extract was used immediately in enzyme activity assays.
Enzyme activity in the forward direction (i.e., adipate semialdehyde to 6-aminohexanoate) was confirmed for the transaminases of SEQ ID NO 8, SEQ ID NO 9, SEQ ID NO 10, SEQ ID NO 11 and SEQ ID NO 13. Enzyme activity assays were performed in a buffer composed of a final concentration of 50 mM HEPES buffer (pH=7.5), 10 mM adipate semialdehyde, 10 mM L-alanine and 100 μM pyridoxyl 5′ phosphate. Each enzyme activity assay reaction was initiated by adding a cell free extract of the ω-transaminase gene product or the empty vector control to the assay buffer containing the adipate semialdehyde and incubated at 25° C. for 4 h, with shaking at 250 rpm. The formation of pyruvate was quantified via RP-HPLC.

[2] = ω-transaminase enzyme activity assay, reverse direction (6-aminohexanoate to adipate semialdehyde); details: cell free extract, 10 mM 6-aminohexanoate, 10 mM pyruvate, pH 7.5, 25° C., 24 h, RP-HPLC, against the empty vector control
Protocol: as §1, §2
Enzyme activity assays in the reverse direction (i.e., 6-aminohexanoate to adipate semialdehyde) were performed in a buffer composed of a final concentration of 50 mM HEPES buffer (pH=7.5), 10 mM 6-aminohexanoate, 10 mM pyruvate and 100 μM pyridoxyl 5′ phosphate. Each enzyme activity assay reaction was initiated by adding cell free extract of the ω-transaminase gene product or the empty vector control to the assay buffer containing the 6-aminohexanoate and incubated at 25° C. for 24 h, with shaking at 250 rpm. The formation of L-alanine from pyruvate was quantified via RP-HPLC.

[3] = carboxylate reductase enzyme activity assay (adipate semialdehyde to hexanedial); details: purified enzyme enhanced by the gene product of sfp, 2 mM adipate semialdehyde, pH 7.5, room temperature, 20 min, against the empty vector control
Protocol: The N-terminal His-tagged carboxylate reductase of SEQ ID NO 7 (see Example 2 and FIG. 20E) was assayed using adipate semialdehyde as substrate. The enzyme activity assay was performed in triplicate in a buffer composed of a final concentration of 50 mM HEPES buffer (pH=7.5), 2 mM adipate semialdehyde, 10 mM MgCl2, 1 mM ATP and 1 mM NADPH. The enzyme activity assay reaction was initiated by adding purified carboxylate reductase and phosphopantetheine transferase or the empty vector control to the assay buffer containing the adipate semialdehyde and then incubated at room temperature for 20 min. The consumption of NADPH was monitored by absorbance at 340 nm.

Molecule | ω-transaminase activity: acceptance of adipate semialdehyde as substrate (formation of pyruvate from L-alanine) [1] | ω-transaminase activity: acceptance of 6-aminohexanoate as substrate (formation of L-alanine from pyruvate) [2] | carboxylate reductase activity: acceptance of adipate semialdehyde as substrate (consumption of NADPH, absorbance at 340 nm) [3]
SEQ ID NO 11: Rhodobacter sphaeroides ω-transaminase, N-terminal HIS tagged | accepted adipate semialdehyde as substrate | accepted 6-aminohexanote as substrate | 
SEQ ID NO 13: Vibrio fluvialis ω-transaminase, N-terminal HIS tagged (protein, listed as Vibrio fluvialis, N-terminal His tag, Vibrio fluvialis ω-transaminase, N-terminal HIS tagged) MNKPQSWEARAETYSLYGFTDMPSLHQRGTVVVTHGEGPYIVDVNGRRYLDANSGLWNMVAGFDHKGLIDAAKAQYERFPGYHAFFGRMSDQTVMLSEKLVEVSPFDSGRVFYTNSGSEANDTMVKMLWFLHAAEGKPQKRKILTRWNAYHGVTAVSASMTGKPYNSVFGLPLPGFVHLTCPHYWRYGEEGETEEQFVARLARELEETIQREGADTIAGFFAEPVMGAGGVIPPAKGYFQAILPILRKYDIPVISDEVICGFGRTGNTWGCVTYDFTPDAIISSKNLTAGFFPMGAVILGPELSKRLETAIEAIEEFPHGFTASGHPVGCAIALKAIDVVMNEGLAENVRRLAPRFEERLKHIAERPNIGEYRGIGFMWALEAVKDKASKTPFDGNLSVSERIANTCTDLGLICRPLGQSVVLCPPFILTEAQMDEMFDKLEKALDKVFAEVA | accepted adipate semialdehyde as substrate | accepted 6-aminohexanote as substrate | 
SEQ ID NO 9: Pseudomonas aeruginosa ω-transaminase, N-terminal HIS tagged (protein, listed as Pseudomonas aeruginosa, N-terminal His tag, Pseudomonas aeruginosa ω-transaminase, N-terminal HIS tagged) MNARLHATSPLGDADLVRADQAHYMHGYHVFDDHRVNGSLNIAAGDGAYIYDTAGNRYLDAVGGMWCTNIGLGREEMARTVAEQTRLLAYSNPFCDMANPRAIELCRKLAELAPGDLDHVFLTTGGSTAVDTAIRLMHYYQNCRGKRAKKHVITRINAYHGSTFLGMSLGGKSADRPAEFDFLDERIHHLACPYYYRAPEGLGEAEFLDGLVDEFERKILELGADRVGAFISEPVFGSGGVIVPPAGYHRRMWELCQRYDVLYISDEVVTSFGRLGHFFASQAVFGVQPDIILTAKGLTSGYQPLGACIFSRRIWEVIAEPDKGRCFSHGFTYSGHPVACAAALKNIEIIEREGLLAHADEVGRYFEERLQSLRDLPIVGDVRGMRFMACVEFVADKASKALFPESLNIGEWVHLRAQKRGLLVRPIVHLNVMSPPLILTREQVDTVVRVLRESIEETVEDLVRAGHR | accepted adipate semialdehyde as substrate |  | 
SEQ ID NO 8: Chromobacterium violaceum ω-transaminase, N-terminal HIS tagged (protein, listed as Chromobacterium violaceum, N-terminal His tag, Chromobacterium violaceum ω-transaminase, N-terminal HIS tagged) MQKQRTTSQWRELDAAHHLHPFTDTASLNQAGARVMTRGEGVYLWDSEGNKIIDGMAGLWCVNVGYGRKDFAEAARRQMEELPFYNTFFKTTHPAVVELSSLLAEVTPAGFDRVFYTNSGSESVDTMIRMVRRYWDVQGKPEKKTLIGRWNGYHGSTIGGASLGGMKYMHEQGDLPIPGMAHIEQPWWYKHGKDMTPDEFGVVAARWLEEKILEIGADKVAAFVGEPIQGAGGVIVPPATYWPEIERICRKYDVLLVADEVICGFGRTGEWFGHQHFGFQPDLFTAAKGLSSGYLPIGAVFVGKRVAEGLIAGGDFNHGFTYSGHPVCAAVAHANVAALRDEGIVQRVKDDIGPYMQKRWRETFSRFEHVDDVRGVGMVQAFTLVKNKAKRELFPDFGEIGTLCRDIFFRNNLIMRACGDHIVSAPPLVMTRAEVDEMLAVAERCLEEFEQTLKARGLA | accepted adipate semialdehyde as substrate | accepted 6-aminohexanote as substrate | 
SEQ ID NO 10: Pseudomonas syringae ω-transaminase, N-terminal HIS tagged (protein, listed as Pseudomonas syringae, N-terminal His tag, Pseudomonas syringae ω-transaminase, N-terminal HIS tagged) MSANNPQTLEWQALSSEHHLAPFSDYKQLKEKGPRIITRAEGVYLWDSEGNKILDGMSGLWCVAIGYGREELADAASKQMRELPYYNLFFQTAHPPVLELAKAISDIAPEGMNHVFFTGSGSEGNDTMLRMVRHYWALKGQPNKKTIISRVNGYHGSTVAGASLGGMTYMHEQGDLPIPGVVHIPQPYWFGEGGDMTPDEFGIWAAEQLEKKILELGVENVGAFIAEPIQGAGGVIVPPDSYWPKIKEILSRYDILFAADEVICGFGRTSEWFGSDFYGLRPDMMTIAKGLTSGYVPMGGLIVRDEIVAVLNEGGDFNHGFTYSGHPVAAAVALENIRILREEKIVERVRSETAPYLQKRLRELSDHPLVGEVRGVGLLGAIELVKDKTTRERYTDKGAGMICRTFCFDNGLIMRAVGDTMIIAPPLVISFAQIDELVEKARTCLDLTLAVLQG | accepted adipate semialdehyde as substrate | accepted 6-aminohexanote as substrate | 
SEQ ID NO 7: Segniliparus rotundus carboxylate reductase, N-terminal HIS tagged (protein, listed as Segniliparus rotundus, N-terminal His tag, Segniliparus rotundus carboxylate reductase, N-terminal HIS tagged) MTQSHTQGPQASAAHSRLARRAAELLATDPQAAATLPDPEVVRQATRPGLRLAERVDAILSGYADRPALGQRSFQTVKDPITGRSSVELLPTFDTITYRELRERATAIASDLAHHPQAPAKPGDFLASIGFISVDYVAIDIAGVFAGLTAVPLQTGATLATLTAITAETAPTLFAASIEHLPTAVDAVLATPSVRRLLVFDYRAGSDEDREAVEAAKRKIADAGSSVLVDVLDEVIARGKSAPKAPLPPATDAGDDSLSLLIYTSGSTGTPKGAMYPERNVAHFWGGVWAAAFDEDAAPPVPAINITFLPLSHVASRLSLMPTLARGGLMHFVAKSDLSTLFEDLKLARPTNLFLVPRVVEMLYQHYQSELDRRGVQDGTREAEAVKDDLRTGLLGGRILTAGFGSAPLSAELAGFIESLLQIHLVDGYGSTEAGPVWRDGYLVKPPVTDYKLIDVPELGYFSTDSPHPRGELAIKTQTILPGYYKRPETTAEVFDEDGFYLTGDVVAQIGPEQFAYVDRRKNVLKLSQGEFVTLAKLEAAYSSSPLVRQLFVYGSSERSYLLAVIVPTPDALKKFGVGEAAKAALGESLQKIARDEGLQSYEVPRDFIIETDPFTVENGLLSDARKSLRPKLKEHYGERLEAMYKELADGQANELRDIRRGVQQRPTLETVRRAAAAMLGASAAEIKPDAHFTDLGGDSLSALTFSNFLHDLFEVDVPVGVIVSAANTLGSVAEHIDAQLAGGRARPTFATVHGKGSTTIKASDLTLDKFIDEQTLEAAKHLPKPADPPRTVLLTGANGWLGRFLALEWLERLAPAGGKLITIVRGKDAAQAKARLDAAYESGDPKLAGHYQDLAATTLEVLAGDFSEPRLGLDEATWNRLADEVDFISHPGALVNHVLPYNQLFGPNVAGVAEIIKLAITTRIKPVTYLSTVAVAAGVEPSALDEDGDIRTVSAERSVDEGYANGYGNSKWGGEVLLREAHDRTGLPVRVFRSDMILAHQKYTGQVNATDQFTRLVQSLLATGLAPKSFYELDAQGNRQRAHYDGIPVDFTAESITTLGGDGLEGYRSYNVFNPHRDGVGLDEFVDWLIEAGHPITRIDDYDQWLSRFETSLRGLPESKRQASVLPLLHAFARPGPAVDGSPFRNTVFRTDVQKAKIGAEHDIPHLGKALVLKYADDIKQLGLL |  |  | accepted adipate semialdehyde as substrate
